The target in the assay is PscF from strain PAO1 (Pseudomonas aeruginosa) (UniProt P95434). The experiment in a line: ELISA; competition with biotinylated P1D8. In general terms: An ELISA detects its analyte on a solid surface through an enzyme-linked reagent.

What is called IC50 is the concentration at which inhibition is half-maximal. High values mean lower potency, low ones higher potency.

Take “P1D8 (human anti-PscF monoclonal antibody) (from UniProt P01857)”: the 50% inhibitory concentration (IC50) amounted to 0.01 µg/mL.

(Values after PMC12912723.)
